B1: UBE2R2 (parent)
chain: DPQSGELPSERWNPTQNVRTILLS
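Further: lentivirally expressed fusions sorted by FACS into six bins by GFP to DsRed ratio, PSI derived from sequencing read proportions per bin multiplied by bin number.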

Variants of: B1
Assay: protein stability index of a GFP-peptide fusion (GPS, HEK-293T) (PSI 1-6); higher = more stable
Conditions: c terminus: a fixed tail appended
Work on DPQSGELPSERWNPTDNVRTILLS [Q16D] yielded a protein stability index of 3.97. Variant DPQSGELPSERWNPTSNVRTILLS [Q16S] has a protein stability index of 3.58. Work on DPQSGELPSERWNPTFNVRTILLS [Q16F] yielded a protein stability index of 2.5. DPQSGELPSERWNPTHNVRTILLS [Q16H] showed a protein stability index of 3.44. In the case of DPQSGELPSERWNPTTNVRTILLS [Q16T], the protein stability index is reported as 4.14. Variant DPQSGELPSERWNPTNNVRTILLS [Q16N] has a protein stability index of 3.48. In the case of DPQSGELPSERWNPTENVRTILLS [Q16E], the protein stability index is reported as 2.95. In the case of DPQSGELPSERWNPTKNVRTILLS [Q16K], the protein stability index is reported as 3.51. DPQSGELPSERWNPTCNVRTILLS [Q16C] showed a protein stability index of 3.04. In the case of DPQSGELPSERWNPTGNVRTILLS [Q16G], the protein stability index is reported as 3.53. Variant DPQSGELPSERWNPTLNVRTILLS [Q16L] has a protein stability index of 2.88. For DPQSGELPSERWNPTVNVRTILLS [Q16V], the protein stability index was 3.11. With DPQSGELPSERWNPTYNVRTILLS [Q16Y] the protein stability index was 2.54. DPQSGELPSERWNPTMNVRTILLS [Q16M] gave a protein stability index of 3.46. With DPQSGELPSERWNPTINVRTILLS [Q16I] the protein stability index was 2.83. In the case of DPQSGELPSERWNPTWNVRTILLS [Q16W], the protein stability index is reported as 2.54. Work on DPQSGELPSERWNPTANVRTILLS [Q16A] yielded a protein stability index of 3.67. Variant DPQSGELPSERWNPTRNVRTILLS [Q16R] has a protein stability index of 3.81. Variant DPQSGELPSERWNPTPNVRTILLS [Q16P] has a protein stability index of 3.24. Variant DPQSGELPSERWNPTQNVRLILLS [T20L] has a protein stability index of 2.79. In the case of DPQSGELPSERWNPTQNVRFILLS [T20F], the protein stability index is reported as 1.57. Variant DPQSGELPSERWNPTQNVRGILLS [T20G] has a protein stability index of 2.9. In the case of DPQSGELPSERWNPTQNVRQILLS [T20Q], the protein stability index is reported as 3.76. Work on DPQSGELPSERWNPTQNVRKILLS [T20K] yielded a protein stability index of 4.43. In the case of DPQSGELPSERWNPTQNVRCILLS [T20C], the protein stability index is reported as 2.92. DPQSGELPSERWNPTQNVRYILLS [T20Y] gave a protein stability index of 2.46. Variant DPQSGELPSERWNPTQNVRVILLS [T20V] has a protein stability index of 2.05. For DPQSGELPSERWNPTQNVRMILLS [T20M], the protein stability index was 3.67. Variant DPQSGELPSERWNPTQNVREILLS [T20E] has a protein stability index of 3.19. DPQSGELPSERWNPTQNVRHILLS [T20H] gave a protein stability index of 3.6. Variant DPQSGELPSERWNPTQNVRNILLS [T20N] has a protein stability index of 3.71. Work on DPQSGELPSERWNPTQNVRWILLS [T20W] yielded a protein stability index of 2.93. DPQSGELPSERWNPTQNVRDILLS [T20D] showed a protein stability index of 3.61. Variant DPQSGELPSERWNPTQNVRSILLS [T20S] has a protein stability index of 4.1. With DPQSGELPSERWNPTQNVRAILLS [T20A] the protein stability index was 3.64. In the case of DPQSGELPSERWNPTQNVRPILLS [T20P], the protein stability index is reported as 3.79. In the case of DPQSGELPSERWNPTQNVRIILLS [T20I], the protein stability index is reported as 1.65. Variant DPQSGELPSERWNPTQNVRRILLS [T20R] has a protein stability index of 3.32. In the case of DPQSGELPSERWNPTQNSRTILLS [V18S], the protein stability index is reported as 3.92. DPQSGELPSERWNPTQNLRTILLS [V18L] showed a protein stability index of 3.27. Work on DPQSGELPSERWNPTQNWRTILLS [V18W] yielded a protein stability index of 3.24. DPQSGELPSERWNPTQNTRTILLS [V18T] gave a protein stability index of 4.04. Work on DPQSGELPSERWNPTQNIRTILLS [V18I] yielded a protein stability index of 3.97. With DPQSGELPSERWNPTQNYRTILLS [V18Y] the protein stability index was 3.34. With DPQSGELPSERWNPTQNMRTILLS [V18M] the protein stability index was 3.3. With DPQSGELPSERWNPTQNQRTILLS [V18Q] the protein stability index was 4.2. For DPQSGELPSERWNPTQNGRTILLS [V18G], the protein stability index was 4. Variant DPQSGELPSERWNPTQNERTILLS [V18E] has a protein stability index of 4.06. DPQSGELPSERWNPTQNNRTILLS [V18N] gave a protein stability index of 4. Work on DPQSGELPSERWNPTQNPRTILLS [V18P] yielded a protein stability index of 3.63. For DPQSGELPSERWNPTQNRRTILLS [V18R], the protein stability index was 4.14. Work on DPQSGELPSERWNPTQNFRTILLS [V18F] yielded a protein stability index of 3.61. In the case of DPQSGELPSERWNPTQNDRTILLS [V18D], the protein stability index is reported as 3.83. In the case of DPQSGELPSERWNPTQNARTILLS [V18A], the protein stability index is reported as 4.38. In the case of DPQSGELPSERWNPTQNHRTILLS [V18H], the protein stability index is reported as 4. For DPQSGELPSERWNPTQNCRTILLS [V18C], the protein stability index was 3.9. In the case of DPQSGELPSERWNPTQNKRTILLS [V18K], the protein stability index is reported as 3.78. For DPQSGELPSERFNPTQNVRTILLS [W12F], the protein stability index was 3.92. Work on DPQSGELPSERDNPTQNVRTILLS [W12D] yielded a protein stability index of 4.81. DPQSGELPSERSNPTQNVRTILLS [W12S] gave a protein stability index of 4.67. For DPQSGELPSERQNPTQNVRTILLS [W12Q], the protein stability index was 4.44. DPQSGELPSERNNPTQNVRTILLS [W12N] gave a protein stability index of 4.48. For DPQSGELPSERLNPTQNVRTILLS [W12L], the protein stability index was 3.62. Work on DPQSGELPSERMNPTQNVRTILLS [W12M] yielded a protein stability index of 4.1. With DPQSGELPSERPNPTQNVRTILLS [W12P] the protein stability index was 4.4. Variant DPQSGELPSERHNPTQNVRTILLS [W12H] has a protein stability index of 4.08. Work on DPQSGELPSERYNPTQNVRTILLS [W12Y] yielded a protein stability index of 4.07. Variant DPQSGELPSERGNPTQNVRTILLS [W12G] has a protein stability index of 4.33. DPQSGELPSERINPTQNVRTILLS [W12I] showed a protein stability index of 4.35. Work on DPQSGELPSERTNPTQNVRTILLS [W12T] yielded a protein stability index of 4.72. DPQSGELPSERVNPTQNVRTILLS [W12V] showed a protein stability index of 4.2. Work on DPQSGELPSERKNPTQNVRTILLS [W12K] yielded a protein stability index of 4.54. Variant DPQSGELPSERENPTQNVRTILLS [W12E] has a protein stability index of 4.71. Variant DPQSGELPSERCNPTQNVRTILLS [W12C] has a protein stability index of 3.94. DPQSGELPSERANPTQNVRTILLS [W12A] gave a protein stability index of 4.61. DPQSGELPSERRNPTQNVRTILLS [W12R] showed a protein stability index of 4.31. For DPQSGELPSERWNPTQNVRTDLLS [I21D], the protein stability index was 4.6. For DPQSGELPSERWNPTQNVRTELLS [I21E], the protein stability index was 4.53. For DPQSGELPSERWNPTQNVRTALLS [I21A], the protein stability index was 5.11. Variant DPQSGELPSERWNPTQNVRTCLLS [I21C] has a protein stability index of 4.33. Work on DPQSGELPSERWNPTQNVRTFLLS [I21F] yielded a protein stability index of 3.96. Variant DPQSGELPSERWNPTQNVLTILLS [R19L] has a protein stability index of 2.61. Work on DPQSGELPSERWNPTQNVETILLS [R19E] yielded a protein stability index of 4.76. In the case of DPQSGELPSERWNPTQNVYTILLS [R19Y], the protein stability index is reported as 2.11. DPQSGELPSERWNPTQNVHTILLS [R19H] showed a protein stability index of 3.43. With DPQSGELPSERWNPTQNVKTILLS [R19K] the protein stability index was 3.95. Variant DPQSGELPSERWNPTQNVITILLS [R19I] has a protein stability index of 2.41. Work on DPQSGELPSERWNPTQNVDTILLS [R19D] yielded a protein stability index of 4.43. DPQSGELPSERWNPTQNVMTILLS [R19M] gave a protein stability index of 2.86. DPQSGELPSERWNPTQNVNTILLS [R19N] showed a protein stability index of 4.5. Work on DPQSGELPSERWNPTQNVGTILLS [R19G] yielded a protein stability index of 3.7. DPQSGELPSERWNPTQNVQTILLS [R19Q] showed a protein stability index of 3.81. For DPQSGELPSERWNPTQNVCTILLS [R19C], the protein stability index was 3.05. For DPQSGELPSERWNPTQNVTTILLS [R19T], the protein stability index was 3.21.

From the supplement of paper PMC10567573
